PMC9160799, “PET Imaging of Acidic Tumor Environment With ^89Zr-labeled pHLIP Probes” (Frontiers in Oncology, 2022)

Columns and labels:
in vivo = assay: in vivo; set-up: species or system female athymic nude mice; conditions: female, athymic nude, mouse, iv, 1.2 nmol, total radioactivity
Experimental: (§1) The media were provided by the MSK Media Preparation Core. […] Another aliquot was diluted with the medium so that 50 µL contained 1×10^6 cells.
(§2) The imaging and biodistribution studies were performed with male (RM-1 model) and female (4T1 model) athymic nude mice and the kidney-blocking experiments were performed with female SCID mice received from Charles River Laboratories (Stone Ridge, NY). After arrival, the mice were kept in the MSK vivarium for one week before any experimental handling was performed. The animals were allowed free access to water and food, and all animal care and experimental procedures were approved by the Institutional Animal Care and Use Committee (IACUC). For the subcutaneous allografts, a 1-to-1 ratio of Corning Matrigel Matrix and the cell solution was prepared and stored on ice for the injections. Each mouse received a subcutaneous injection of 100 µL (50 µL cell solution, viability > 90%, + 50 µL Matrigel) into the flank on the level of the right shoulder. The injections were performed under anesthesia (2% isoflurane, Baxter Healthcare, Deerfield, IL, USA).
(§3) The mice were intravenously injected (tail vein) with the radiolabeled pHLIP conjugates (1.2 nmol, 7.4 MBq/200 µCi, 100 µL, in sterile filtered PBS). The activity of the syringe prior to injection and after injection was used to determine the percent of injectate administered.
(§4) For the biodistribution studies the tumor-bearing mice were randomized before the injections. Only mice with suitable tumors (150–300 mm^3) were utilized. An exception was made for the 120-hour timepoint, for which only mice with smaller tumors (150 mm^3) were selected. The mice were grouped in cohorts of four. At the respective timepoint, the mice were euthanized (by CO2 asphyxiation, followed by cervical dislocation) and their blood was collected by cardiac puncture as a terminal procedure, followed by quick removal of the tumors. After this, the other organs/samples were collected. […] The exact activities of all samples of one mouse were determined by an Capintec® CRC-55tR dose calibrator. These decay-corrected measurements were used to determine a calibration factor and calibrate all counts to the corresponding activities. Activity concentrations were calculated as percentage injected dose per tissue weight (%ID/g wet tissue). All data was processed and visualized using Origin 8.5.

[1] = Post-mortem biodistribution, RM-1 tumor model; type: in vivo, male athymic nude mice; conditions: male, athymic nude, mouse, in vivo, iv, 1.2 nmol, total radioactivity
Experimental: as §1, §2, §3, §4

RM-1 tumor allografts = assay: Post-mortem biodistribution, RM-1 tumor model; type: in vivo, male athymic nude mice; conditions: mouse, in vivo, iv, 1.2 nmol, 48 h
Experimental: as §1, §2, §3, §4

4T1 tumor allografts [2] = assay: in vivo; set-up: species or system female athymic nude mice; conditions: mouse, iv
Experimental: as §1, §2, §3, §4

[3] = type: in vitro ADME, human
Experimental: A potential degradation of the compounds was investigated by serum stability assay. For this, 100 µL of the prepared PBS solution (containing 1.2 nmol of pHLIP and 7.4 MBq/200 µCi) was added to 900 µL of human serum (heat inactivated from Millipore Sigma) and incubated for seven days at 37°C. The release of free ^89Zr^4+ was measured by radio instant thin-layer chromatography (as described above) and the degradation of the whole construct was checked by radio high-performance liquid chromatography (HPLC). The analytical reverse-phase HPLC was performed on a Shimadzu system equipped with a Flow Count PIN diode radiodetector from BioScan, a DGU-20A degasser, two LC-20AB pumps, and an SPD-M20A photodiode array detector. A BetaBasic 18 column (150 Å, 5.0 µm, 4.6×150 mm, Thermo Scientific) was used with water (+ 0.1% trifluoroacetic acid) and acetonitrile (+ 0.1% trifluoroacetic acid) as solvents. The gradient started at 5% acetonitrile and increased to 95% over 15 minutes at a constant flowrate of 1 mL/min. The radiochemical purities of all ^89Zr-radiolabeled pHLIP conjugates were greater than 90% over the course of seven days.

4T1 tumor allografts [4] = system: 4T1 tumor allografts; set-up: species or system female athymic nude mice; conditions: mouse, in vivo, iv

Compound `CC(=O)N[C@H](C)C(=O)N[C@H](CCCCNc1c(NCCCCCN(O)C(=O)CCC(=O)NCCCCCN(O)C(=O)CCC(=O)NCCCCCN(O)C(C)=O)c(=O)c1=O)C(=O)N[C@H](CC(=O)O)C(=O)N[C@H](CC(=O)O)C(=O)N[C@H](CCC(N)=O)C(=O)N[C@H](CC(N)=O)C(=O)N1CCC[C@@H]1C(=O)N[C@H](Cc1c[nH]c2ccccc12)C(=O)N[C@H](CCCNC(=N)N)C(=O)N[C@H](C)C(=O)N[C@H](Cc1ccc(O)cc1)C(=O)N[C@H](CC(C)C)C(=O)N[C@H](CC(=O)O)C(=O)N[C@H](CC(C)C)C(=O)N[C@H](CC(C)C)C(=O)N[C@H](Cc1ccccc1)C(=O)N1CCC[C@@H]1C(=O)N[C@@H](C(=O)N[C@H](CC(=O)O)C(=O)N[C@@H](C(=O)N[C@H](CC(C)C)C(=O)N[C@H](CC(C)C)C(=O)N[C@H](CC(C)C)C(=O)N[C@H](CC(=O)O)C(=O)N[C@H](CC(C)C)C(=O)N[C@H](CC(C)C)C(=O)N[C@H](Cc1c[nH]c2ccccc12)C(=O)N[C@H](C)C(=O)O)[C@H](C)O)[C@H](C)O` (89Zr complex, metal not drawn) [DFOsqa-Lys-Var3] has a tissue uptake at 48 h (in vivo; Blood uptake) of 0.4 ± 0.01 %ID/g, a tissue uptake at 48 h (in vivo; Brain uptake) of 0.04 ± 0.01 %ID/g and a tissue uptake at 48 h (in vivo; Heart uptake) of 1.3 ± 0.06 %ID/g. For the same compound, the tissue uptake at 48 h (in vivo; Kidneys uptake) was 82.5 ± 10.9 %ID/g, the tissue uptake at 48 h (in vivo; Liver uptake) was 11.2 ± 1 %ID/g and the tissue uptake at 48 h (in vivo; Lungs uptake) was 1.4 ± 0.2 %ID/g. The tissue uptake at 48 h (in vivo; Muscle uptake) was 0.5 ± 0.04 %ID/g, the tissue uptake at 48 h (in vivo; Pancreas uptake) was 0.8 ± 0.1 %ID/g and the tissue uptake at 48 h (in vivo; Skin uptake) was 2.6 ± 0.4 %ID/g. For the same compound, the tissue uptake at 48 h (in vivo; Spleen uptake) was 6.9 ± 0.6 %ID/g, the tissue uptake at 48 h (in vivo; Tibia uptake) was 1.5 ± 0.2 %ID/g and the tissue uptake at 48 h (in vivo; Tumor uptake) was 10.2 ± 1.2 %ID/g. It also gave a tissue uptake at 48 h ([1]; Blood uptake) of 0.3 ± 0.03 %ID/g, a tissue uptake at 48 h ([1]; Brain uptake) of 0.06 ± 0.02 %ID/g and a tissue uptake at 48 h ([1]; Heart uptake) of 1.6 ± 0.1 %ID/g. The tissue uptake at 48 h ([1]; Kidneys uptake) was 82.5 ± 14.2 %ID/g, the tissue uptake at 48 h ([1]; Liver uptake) was 10.8 ± 2.1 %ID/g and the tissue uptake at 48 h ([1]; Lungs uptake) was 2.5 ± 0.6 %ID/g. The tissue uptake at 48 h ([1]; Pancreas uptake) was 1.2 ± 0.1 %ID/g, the tissue uptake at 48 h ([1]; Skin uptake) was 2.1 ± 0.07 %ID/g and the tissue uptake at 48 h ([1]; Spleen uptake) was 6.4 ± 1.4 %ID/g. It also gave a tissue uptake at 48 h ([1]; Tibia uptake) of 1.6 ± 0.1 %ID/g and a Tumor uptake (RM-1 tumor allografts) of 12.4 ± 4.7 %ID/g.

`CC(=O)N(O)CCCCCNC(=O)CCC(=O)N(O)CCCCCNC(=O)CCC(=O)N(O)CCCCCNC(=O)CCN1C(=O)CC(SC[C@@H](NC(=O)[C@@H](C)N)C(=O)N[C@H](CC(=O)O)C(=O)N[C@H](CC(=O)O)C(=O)N[C@H](CCC(N)=O)C(=O)N[C@H](CC(N)=O)C(=O)N2CCC[C@@H]2C(=O)N[C@H](Cc2c[nH]c3ccccc23)C(=O)N[C@H](CCCNC(=N)N)C(=O)N[C@H](C)C(=O)N[C@H](Cc2ccc(O)cc2)C(=O)N[C@H](CC(C)C)C(=O)N[C@H](CC(=O)O)C(=O)N[C@H](CC(C)C)C(=O)N[C@H](CC(C)C)C(=O)N[C@H](Cc2ccccc2)C(=O)N2CCC[C@@H]2C(=O)N[C@@H](C(=O)N[C@H](CC(=O)O)C(=O)N[C@@H](C(=O)N[C@H](CC(C)C)C(=O)N[C@H](CC(C)C)C(=O)N[C@H](CC(C)C)C(=O)N[C@H](CC(=O)O)C(=O)N[C@H](CC(C)C)C(=O)N[C@H](CC(C)C)C(=O)N[C@H](Cc2c[nH]c3ccccc23)C(=O)O)[C@H](C)O)[C@H](C)O)C1=O` (some centres unmarked) (89Zr complex, metal not drawn) [DFO-Cys-Var3] gave a tissue uptake at 4 h (in vivo; Blood uptake) of 16.1 ± 0.6 %ID/g, a tissue uptake at 24 h (in vivo; Blood uptake) of 5.8 ± 0.5 %ID/g and a tissue uptake at 48 h (in vivo; Blood uptake) of 2.2 ± 0.1 %ID/g. The tissue uptake at 72 h (in vivo; Blood uptake) was 1 ± 0.1 %ID/g, the tissue uptake at 120 h (in vivo; Blood uptake) was 0.2 ± 0.05 %ID/g and the tissue uptake at 4 h (in vivo; Heart uptake) was 4.2 ± 0.5 %ID/g. For the same compound, the tissue uptake at 24 h (in vivo; Heart uptake) was 3 ± 0.4 %ID/g, the tissue uptake at 48 h (in vivo; Heart uptake) was 2.6 ± 0.1 %ID/g and the tissue uptake at 72 h (in vivo; Heart uptake) was 1.9 ± 0.2 %ID/g. For the same compound, the tissue uptake at 120 h (in vivo; Heart uptake) was 1.6 ± 0.3 %ID/g, the tissue uptake at 4 h (in vivo; Kidneys uptake) was 19.8 ± 3.3 %ID/g and the tissue uptake at 24 h (in vivo; Kidneys uptake) was 44.3 ± 6.5 %ID/g. It also gave a tissue uptake at 48 h (in vivo; Kidneys uptake) of 47.6 ± 11.5 %ID/g, a tissue uptake at 72 h (in vivo; Kidneys uptake) of 46.3 ± 8.3 %ID/g and a tissue uptake at 120 h (in vivo; Kidneys uptake) of 35.3 ± 5.9 %ID/g. For the same compound, the tissue uptake at 4 h (in vivo; Liver uptake) was 4.8 ± 0.4 %ID/g, the tissue uptake at 24 h (in vivo; Liver uptake) was 6.1 ± 0.7 %ID/g and the tissue uptake at 48 h (in vivo; Liver uptake) was 6.6 ± 0.1 %ID/g. For the same compound, the tissue uptake at 72 h (in vivo; Liver uptake) was 6.7 ± 0.7 %ID/g, the tissue uptake at 120 h (in vivo; Liver uptake) was 6 ± 0.3 %ID/g and the tissue uptake at 4 h (in vivo; Lungs uptake) was 11.2 ± 2 %ID/g. It also gave a tissue uptake at 24 h (in vivo; Lungs uptake) of 3.8 ± 0.9 %ID/g, a tissue uptake at 48 h (in vivo; Lungs uptake) of 2.7 ± 0.3 %ID/g and a tissue uptake at 72 h (in vivo; Lungs uptake) of 2 ± 0.1 %ID/g. It also gave a tissue uptake at 120 h (in vivo; Lungs uptake) of 1.8 ± 0.3 %ID/g, a tissue uptake at 24 h (in vivo; Pancreas uptake) of 1.8 ± 0.2 %ID/g and a tissue uptake at 48 h (in vivo; Pancreas uptake) of 1.5 ± 0.4 %ID/g. The tissue uptake at 72 h (in vivo; Pancreas uptake) was 1.5 ± 0.2 %ID/g, the tissue uptake at 120 h (in vivo; Pancreas uptake) was 1.4 ± 0.1 %ID/g and the tissue uptake at 4 h (in vivo; Skin uptake) was 2.7 ± 0.6 %ID/g. It also gave a tissue uptake at 24 h (in vivo; Skin uptake) of 3.7 ± 0.4 %ID/g, a tissue uptake at 48 h (in vivo; Skin uptake) of 3.9 ± 0.7 %ID/g and a tissue uptake at 72 h (in vivo; Skin uptake) of 3.5 ± 0.6 %ID/g. It also gave a tissue uptake at 120 h (in vivo; Skin uptake) of 3.7 ± 0.1 %ID/g, a tissue uptake at 4 h (in vivo; Spleen uptake) of 2.7 ± 0.5 %ID/g and a tissue uptake at 24 h (in vivo; Spleen uptake) of 4.1 ± 0.7 %ID/g. For the same compound, the tissue uptake at 48 h (in vivo; Spleen uptake) was 5.1 ± 2 %ID/g, the tissue uptake at 72 h (in vivo; Spleen uptake) was 4.3 ± 0.4 %ID/g and the tissue uptake at 120 h (in vivo; Spleen uptake) was 6.1 ± 1 %ID/g. It also gave a tissue uptake at 4 h (in vivo; Tibia uptake) of 1.8 ± 0.2 %ID/g, a tissue uptake at 24 h (in vivo; Tibia uptake) of 1.8 ± 0.06 %ID/g and a tissue uptake at 48 h (in vivo; Tibia uptake) of 1.5 ± 0.4 %ID/g. It also gave a tissue uptake at 72 h (in vivo; Tibia uptake) of 1.6 ± 0.2 %ID/g, a tissue uptake at 4 h (in vivo; Tumor uptake) of 5.6 ± 0.8 %ID/g and a tissue uptake at 24 h (in vivo; Tumor uptake) of 9.4 ± 1.2 %ID/g. For the same compound, the tissue uptake at 48 h (in vivo; Tumor uptake) was 9.7 ± 1.7 %ID/g, the tissue uptake at 72 h (in vivo; Tumor uptake) was 9.1 ± 1 %ID/g and the tissue uptake at 120 h (in vivo; Tumor uptake) was 6.8 ± 0.7 %ID/g. The “(biological) blood clearance half-life” value (4T1 tumor allografts [2]) was 16.0 ± 0.4 hours, the “radiochemical purity after incubation in human serum” value [3] was greater than 90% and the tissue uptake at 48 h ([1]; RM-1, male athymic nude mice, 48 h p.i., i.v. 1.2 nmol, 7.4 MBq, gamma counting, mean ± S.D., n=4, read-out: Brain uptake) was 0.08 ± 0.01 %ID/g. The tissue uptake at 48 h ([1]; RM-1, male athymic nude mice, 48 h p.i., i.v. 1.2 nmol, 7.4 MBq, gamma counting, mean ± S.D., n=4, read-out: Pancreas uptake) was 0.7 ± 0.1 %ID/g, the tissue uptake at 48 h ([1]; Tibia uptake) was 1.4 ± 0.1 %ID/g and the “biological half-life for total body excretion” value (4T1 tumor allografts [4]) was 415 ± 10 hours.
